B1: r4_43_TrROS_Hall (parent)
chain: DLVTIKVPLENLEEIKKAAEKAGFKIVSISYDKENKEVTIVIEKKK

Variants of: B1
Experiment: folding stability dG (cDNA display proteolysis); higher = more stable
Conditions: PBS, room temperature

Folding stability dG [kJ/mol], by site and new letter:
K17: F 16.7 | A 14.9 | P 8.94 | S 15.5 | R 14.3 | Q 15.7 | D 14.4 | W 17.6 | Y 17.9
K33: W 15.7 | D 13 | P 12.3
V41: K 14.5 | Y 15.5 | T 14.3 | G 14.2 | F 15.7 | I 15.2 | Q 14.6
N11: I 15.6 | A 16 | P 10.5 | T 15 | Y 17.2 | S 14.3 | F 15 | Q 15.7 | K 15.3
N35: R 16.6 | V 13.3 | I 14.7 | S 14.8 | Y 15.6 | G 15.1 | L 14.5 | Q 14.8
I40: A 11 | G 1.19 | N -2.07 | V 15.9
I42: K 9.79 | P -1.43 | A 14.8 | S 11.5 | G 12.4
I5: D 9.78 | V 15.8 | F 18.1 | T 14.3 | Y 18.5 | S 12.1 | A 13.1
K6: D 11.8 | V 14.6 | A 14.7 | C 13.9 | F 15.1 | E 11.8
E10: K 15.1 | M 16.9 | S 16.1 | Q 14.7 | H 14.3
A18: Q 15.1 | M 16.5 | Y 16 | I 15.3 | D 14.9 | W 18
K45: Q 15.6 | H 16.1 | E 14.6 | M 16.4 | R 16.5 | V 17.3 | F 18.4 | L 16.5
Y31: M 13.3 | T 13.2 | C 14.1 | W 14.8 | D 10.8 | H 14.3 | P 12.4
A22: P 9.96 | F 15.4 | L 15.3 | M 15.4
E14: M 16.3 | W 16.1 | V 15.5 | F 16.7 | L 14.8 | H 17 | I 15.5 | D 15.4 | R 15.8 | P 16.5 | K 14.4
K16: R 14.1 | G 14.2 | E 13.8 | I 16.3 | P 8.26
S30: I 15.3 | Q 14.5 | K 15 | M 14.6 | N 15.9 | V 16.6 | R 15.2 | T 15.3 | A 14.2 | P 2.8 | W 15.5
V3: T 15.3 | H 15.4 | K 14.4 | G 13.1 | P 12.3 | L 15.1 | D 13.3 | Q 15.3 | Y 16.9 | F 17
G23: C 16.1 | H 15.8 | L 14.7 | E 13.3 | P 12.2
L2: H 14.4 | G 14.3 | M 15.3 | D 14
A19: G 13.5 | Y 15.4 | H 14.4 | S 15.4 | T 15.9 | R 13 | M 16.5
S28: F 15.8 | P 10.5 | R 16.2 | L 13.3
K46: G 14.1 | E 16.1 | V 16.4 | F 18 | Q 16.2 | R 15.4 | T 16 | H 17.4 | C 16 | A 14.7
L12: Y 15.2 | F 15.7 | W 15.4 | Q 13.6 | N 10.3 | S 14.2 | K 12.7 | M 15.8 | A 15.2 | E 14.9
I26: Y 10.6 | R 5.06 | D 5.23 | W 13.1 | C 12.6 | P 8.19 | A 8.91
F24: R 11.6 | Y 14.8 | P 6.14 | T 12 | L 11.7 | Q 10.5 | D 10.3 | S 11.3 | A 13.3 | K 10.5
V7: L 14.7 | E 12.2 | K 12.6 | I 15.1 | T 14.9
T39: R 15 | G 11.9 | F 15.4 | W 16.8 | A 14.2 | S 14.8 | P -0.184 | Q 14.1 | Y 16 | E 13.5 | M 14.7
K25: L 12.8 | H 13.4 | G 12.1 | M 15.2 | F 16.3 | P 8.56 | V 12.9
D32: K 12.7 | C 16.1 | E 15.1 | M 14.6 | G 16 | R 12.3 | W 15.2 | H 15.3
E37: C 15.9 | Y 16.3 | V 17.3 | G 15.6 | L 15.2 | I 16.1
E13: Y 15.8 | M 15.4 | H 14.8 | R 13.4 | S 14.8 | I 15.4 | V 15.1
K36: W 15.3 | M 13.5 | Q 14.6 | L 15.5 | V 13.9 | G 15.2 | F 14.6 | H 14.2
I15: V 16.2 | G 12.8 | L 15.5 | C 14.4 | E 14.2
E34: F 15.4 | D 15.7 | L 16.9 | S 16.1 | G 15.9 | N 15.8 | T 15.8 | A 14.6
K44: M 16.6 | P 14.8 | H 15.6 | W 17.8 | D 14.8 | G 15.6 | C 15.7 | E 15 | T 17.2 | F 18.7
E43: W 19.7 | Y 18.1 | D 16.3 | C 16.8 | K 14 | M 16.9 | S 14.7
T4: A 16.4 | R 14.7 | Q 14.2 | F 15.4 | E 14.6 | N 14.4 | C 14.4
L9: S 14.5 | W 16.4 | K 15.3 | V 15 | G 12.9 | M 14.8 | H 14.9 | R 15
E20: G 14.3 | I 15.3 | S 15.3 | R 15.6 | M 15.6 | P 13.1 | C 15.3 | Y 16.4
D1: G 14.5 | T 16 | K 15.9 | S 16.1 | N 15.9 | E 15.3 | M 17.1
P8: G 15.8 | L 16.5 | D 14.2 | I 14.7 | M 16 | F 15.7 | Y 15.1 | Q 14.8 | V 15.6
I29: L 16.1 | A 13.2 | D 7.18 | M 15.8
K21: H 15.8 | N 14.3 | A 15.9 | P 11.5 | W 18.3 | E 12.3 | D 13.2
V27: K 16.6 | F 16.2 | P 7.89 | C 15.2 | I 14.9 | Y 18.2 | G 10.8 | D 11.5 | N 13.6 | W 18.2
V38: E 2.92 | M 14.4 | N 8.83 | A 15.9 | R 5.46 | C 15 | Y 17.6 | P 7.47 | L 15.5 | F 14.9
